Measurements as given in the DeepSol protein solubility set.

Assay: soluble on expression in E. coli; label from the status in PepcDB or PDB records

Sequence	soluble on expression in E. coli
VYSDPLREAIAEAEQLVAAAPHIETEADLLEGLQYLAGCIAGCMHLAFDYERDHPFLQSGTGPFTKMGLDNPDTLYFGTRLQANRDYVVSGRRGTTTDLSFQLLGGEYTDYNVPASQAAFDDRELDIAADGSFEWRLRPSAPGQLVIREVYGDWSQQRGTLAIARLDTVGTAPPPLTRELMEKRYATAGSQLVNRVKTWLQFPQWFYLNIPVNTMVAPRLTPGGLATQYSSAGHFELRPGQALVITVPVSDAPYLGFQLGSMWYISLDYINHQTSLNASQAQADPDGKVRIVVAEQNPGVTNWVETLGHRRGFLQFRWQRVSRELTEADGPTVELVDFDAIPAALPHYQHNKISEDDWRARIALRQRQIATRMLG	not soluble
WCYEIQTEDPRSSCLGPEKWPGACKENQQSPINIVTARTKVNPRLTPFILVGYDQKQQWPIKNNQHTVEMTLGGGACIIGGDLPARYEAVQLHLHWSNGNDNGSEHSIDGRHFAMEMHIVHKKLTSSKEDSKDKFAVLAFMIEVGDKVNKGFQPLVEALPSISKPHSTSTVRESSLQDMLPPSTKMYTYFRYNGSLTTPNCDETVIWTVYKQPIKIHKNQFLEFSKNLYYDEDQKLNMKDNVRPLQPLGKRQVFKSHA	soluble
WLSRSERYIPMMREVLRKEGLPEDLVYLAMIESGFTPHAVSVASAVGPWQFISGTGKRYDLRIDQWIDERRDPLKSTVAAAMYLKELYSLFNQDWYLAAAGYNAGENKILRAIDKYNTRDFWEISKGSYLKRETKDYVPKLLAAAIIAKEPARYGFADVAYLPPIEFD	not soluble
WQYMFYSALSIFVSGKVTDAVYTKQKKMQVMIVTKNPDRVVDEIQKKMRRGITIIHEAEGAYRHDRQTVLLTIVTRFELPSLEAAMKESDPNAFVSISDNVKILGRFYEEDYK	not soluble
WTVIGGYLIVAGKDATTNEMLIKRYVEKNDIVFHTLMEGAPFTIIRTEGSEEIPDENILFEVAKFAASHSRAWKLGIGSADVYWVRPDQISKTAESGEYLKK	not soluble
WWYEGYRPNAGWALTDKPTYRDQQMQDKLDALSLYDILEREIIPLYYDKEDKSYSEGWIRYIRRSMMYIAPHFTMKRMLDDYYDKFYGPLAQRHRSISASSFALASEIADWKQQTATHWDEMRVVRVAATGFGLCLQDNHTMQTLEIEIEKGNLSAELNVELVVISDDNQGGVSLVQTIPLNLSEQSADNRWQKYNVNCSLKNPGLHRVAIRITPHSDLLPHKMDFAYVRWAAIS	not soluble
YDYSNPATLFTLSDIGVSAHRYHNRLDIFTQSLENGAAQQGIEVSLLNEKGQTLTQASSDAQGHVQLENDKNAALLLARKNGQTTLLDLKLPALDLAEFNIAGAPGYSKQFFMFGPRDLYRPGETVILNGLLRDADGKALPDQPIKLDVIKPDGQVLRSVVSQPENGLYHFTWPLDSNAATGMWHIRANTGDNQYRMWDFHVEDFMPERMALNLTGEKTPLTPKDEVKFSVVGYYLYGAPANGNTLQGQLFLRPLREAVSALPGFEFGDIAA	not soluble
YTVEPVQDGERSVTLRRAGGTPLVAAMYHLPAAGSPDFVGLDLAATILADTPSGRLYHALVPTKLASGVFGFTMDQLDPGLAMFGAQLQPGMDQDKALQTLTATLESLSSKPFSQEELERARSKWLTAWQQTYADPEKVGVALSEAIASGDWRLFFLQRDRVRDAKLDDVQRAAVAYLVRSNRTEGRYIPTEKPQRAPLAQR	not soluble
YWFRSHKLERQLAEFQMQNELQYRYYAELEQKYRESRKIMHDMKNHLQAVEHLYQAKDGQEQGGAYVKDLYHMLNLLGEKYYSSNRMLNIICNDKLSLARHPAVAISVEIGDVDFSDLRDIDITTIFANLLDNALEAVEAFGEGAYLNLKIQEVHHFRVISIVNASRPGMKKEGHMGVGLENVRRTVEAYQGTMQCEIVGEEYRVSVMLPGKEDS	not soluble
